# Assay results as given in the DeepSol protein solubility set.
# Assay: soluble on expression in E. coli; label from the status in PepcDB or PDB records
row,Sequence,soluble on expression in E. coli
1,MAICILHYTNAQLARDWSFQQMCNFWGGEQTYHARKDGFKSLEGDKCTFNFPKASDNQKSAQQYCEDNVPYHINNAEASEYKTTCEAEATLICKSGWVQMFGRCYKITKTMMTRDKAEKHCKNQQDQTSTIAFMHREALPFRWNDYFTRVSRIWMDASEVVTNDLIYDVEGGNVLLAFDGYKYNLPNVAIARVSKDETAMVLCEYTPPMTKSESNYLLRRYGEIYYPPLVTSEAVYIRTTSSRIRNEEDKLADHKYCTEVMKPVFRGGRAQSASPTQGLHMPTQMRGINKSAPFKQNPTIKGEAVPFPLDNAIWRKGEPNESCDAATWSSAVVLSRRENEGLEVMSDARYAPIYCEQIVKGLSYTKCPDGFVEYYRKNEGKTWCHKYVWDDTANYDNAEQKCQQLGAHLSSFTSDEEFQFLNDMIAKSEQLPNTDYIEVLLGARRRKRCNDLSIVGRGGFSSDKESECSRRRVFEWLHDVAENPPNFLDAYWPSPYEPNHALVDEECLVMMSGKTNGGMVMEQGN,not soluble
2,MAIDFHLSASQKGTYQAARSLARNLLMPARQTYLQHPPNSPLRFQSTQPTYAAAVSAGILKGQISPAHGGTGGTLIESAILVEECYSVEPSAALTIFATGLGLTPINLAAGPQHAEFLAPFLSGEGSPLASLVFSEPGGVANALEKGAPGFQTTARLEGDEWVINGEKMWATNCAGWDFKGCDLACVVCRDATTPLEEGQDPENKVMIILVTRADLDRNGEGSFEVLRHVATPGHTSVSGPHVRYTNVRVPTKNVLCPAGQGAKVAFGAFDGSAVLVGAMGVGLMRAAFDAALKFAKEDNRGGAVPLLERQAFADLLSGVKIQTEAARALTWKAAHAMENGPGDYDARRELALAAKVFCSEAAVKACTDVINAVGISAYDLQRPFSDLLNTAVVLPIFDGGNVGIRRRHLQQLMLKPTYDAWSSTYGSFPGSHHHHHH,soluble
3,MAIDNIKAYVHLSDADIEEIGRRLDQIKAEVTQSLGARDVAYIKRLIRTQRSLEAAGRFALLFAGNKKCWWLGTGLLSTAKILENLEIGHNVLHGQWDWMNDPEIHSTTWEWDIVCPSSQWMHSHNFVHHTYTNVLGMDNDVGYGILRVTRDRKWTPLHAFQPAVNTVLAAMFQWAVGYYDVELGRYLTKRADWNDTKDKFWETTNKAGRQLARDYVFYPALARKAFPQAVKANAVANLVRSVWAYSVIFCGHFPDEAETFTKEQFKNEDHNQWYLRQMLGSANFYGGKLLTIMSGNLNYQIEHHLFPDMPSNRLAEVGEKVRALCDEYDLPYNVDSFPAQLFKVQKTLLKLTLPNKYLVASPDNAPEVRSNRAFSQNPEIENQLAGGSNGSGLRTGLKLLKRLRPSIKDAILIYSGRKPRGNQQR,not soluble
4,MAIGFICSSPDAELFSEKSRMSSSVLLGCLLCCMDWSAAVPGKTEPFRKLFDAIMIKKLKSCSAAYPSDLDEGSMCDMADASPTSLELGLSKLDKES,not soluble
5,MAIIASNNSWDLYQLAVVILNYRTPQLVVDCLASLVSQIDPQTQQVIVVDNASGDDSVEEIEKAIANNNWQDWVRLLPSDVNGGFSAGNNLGIQAIRAENYLLLNSDTIVRPGAIQTLLVALEQYPEAGLFSPRLEWPDGTPQISCFRDHSPLSEMIDGARTSVITKLLQPFDVPIPVTEQSFEPQWTSFACVLIRRSVVEQIGLMDDGYFMYYDDIDYCRRARQAAWKIRYIPQASVVHLRGGSGSVKSDVASRKRPRPYLYASRSRYFAKFYGPLGLALANLGWLGGWGIAALREILGQKEPHTCDRQWQDIWFQWRQPLKPYRPELEHHHHHH,soluble
6,MAIKNAFYAQSGGVTAVINASACGVIQTARKHPDQIGKVYAGRNGIIGALKEELIDTSLESDDAIQALIHTPGGAFGSCRYKLKNISENQREYERLIEVFRAHDIGYFFYNGGGDSQDTAYKVSQLADRMGYPITCIGVPKTVDNDLPFTDCCPGFGSVAKYIATSTLEASLDIKSMCETSTKVFILEVMGRHAGWIAAAGGLAGQSEGEPPHVILFPEIPFNREKFLERVDQCVRDYGYCVVVASEGAQYEDGRFVADAGAKDAFGHTQLGGVAPALANMVKQALGHKYHWAVADYLQRAARHIASATDVEQAYAVGKAAVEMALAGKQALMPTIVRDQAKPYRWSIGEANLSEVANQEKKMPIHYITDNGFGITQDCRDYLQPLIAGESFPPFDDGLPRVAKLKNQLVEKKLRTEFEL,soluble
7,MAINLQTLFKKKREGKKITMVSTYDYWSAKLCDEVGIDCILVGDSLGTVVKGEGDTLSVTLEEIIYHTKCVMRGVKNAFVIADMPFMSYQVSMEKAVENCGRVIKETKAKAVKLEGGEEIAELVYKLTRIGIPVVGHVGFTPQHINVFGKPKVVGKKKEEEEKLRRDFRALEEAGAFMIVLESVPTHLAKELWKGSNSIVIGIGAGKYVDGQVLVFHDIVGLFEDFKPKFVRRYLEGAKLVKEALKNFKIDVEGGNFPSEEESYG,not soluble
8,MAIPYVVRKKADLTSGERKELWYGVPSKIQDRGGVQNKELAQVVELRGGFHRGQVEGILVEVADAIRYLLSMGQSVTIDGLGTFQTALTSPGFERPEQVTPGQVSVSRVYFVANSALRDRMKKTKCMRIPFKYYMSESMLTKEMKKADQEQEQTEE,not soluble
9,MAIQHPDIQPAVNHSVQVAIAGAGPVGLMMANYLGQMGIDVLVVEKLDKLIDYPRAIGIDDEALRTMQSVGLVDNVLPHTTPWHAMRFLTPKGRCFADIQPMTDEFGWPRRNAFIQPQVDAVMLEGVSRFPNVRCLFSRELEAFSQQDDEVTLHLKTAEGLREIVKAQWLVACDGGASFVRRTLNVPFEGKTAPNQWIVVDIANDPLSTPHIYLCCDPVRPYVSAALPHAVRRFEFMVMPGETEEQLREPQNMRKLLSKVLPNPDNVELIRQRVYTHNARLAQRFRIDRVLLAGDAAHIMPVWQGQGYNSGMRDAFNLAWKLALVIQGKARDALLDTYQQERRDHAKAMIDLSVTAGNVLAPPKRWQGTLRDGVSWLLNYLPPVKRYFLEMRFKPMPQYYGGALVREGEAKHSPVGKMFIQPKVTLENGDVTLLDNAIGANFAVIGWGCNPLWGMSDEQIQQWRALSTRFIQVVPEVQIHTAQDNHDGVLRVGDTQGRLRSWFAQHNASLVVMRPDRFVAATAIPQTLGKTLNKLASVMTLTRPDADVSVEKVA,not soluble
10,MAIRIAINGFGRIGRSVLRALYESGRRAEISVVAINELASAEGMAHLLKYDSSHGRFAWDVRQECDSLYVGDDIIRLIHQSEIEQLPWSELGIDVVLDCSGVYGSREDGEAHVASGAKKVLFAHPGGHDLDATVVYGVNHQDLRAEHRIVSNASCTTNCIIPIIQLLDIAYGIESGTVTTIHSSMNDQPVIDAYHQDLRRTRAASQSIIPVDTKLAAGITRIFPKFCDRFEAISVRVPTINVTAIDLSVSVTHPVGVAEVNQLLQKAARGAFRGIVDYTELPLVSMDFNHDPHSAIVDGTQTRVSGQHLIKTLVWCDNEWGFANRMLDTTLAMAKSGF,not soluble
11,MAIRRLRTIFVSLLLGLAASATQAADRSDRNVTAKLEGRFEWDFALFDNDTRGTPNRSNNEIRRFWLDVTGKVFAFDYTIEGNFTNLQDKFKGKSIEMGDVYLRHDFGNTGTLTLGQFKQHFSLDDRTSPDYGQFLERSGGANTLAPEYHKGVSWKATHQNTTWWVSAYSLDSISLSNVNGRGLGGRGTWSPDTPEGDVLHLGLSLAHQRYDHPGSDGMTALSIRPLPAGHLSDNSGITLAHFANGRDTKVNRWALEYAQVRGPLSWQSEYIGGAFNDGMQRATVQSAYGFVSWFVTGESRTYDRKTGRFTRIKTLHNPRGALELALRYDRMWGNQHHNNQPNFLNASTASCTLGVNWYIKPNLRLMLNLIDSRNRDRLAGTVLDHTRALTGRLHYDF,not soluble
12,MAIYTVKALITDPIDEILIKTLREKGIQVDYMPEISKEELLNIIGNYDIIVVRSRTKVTKDVIEKGKKLKIIARAGIGLDNIDTEEAEKRNIKVVYAPGASTDSAVELTIGLMIAAARKMYTSMALAKSGIFKKIEGLELAGKTIGIVGFGRIGTKVGIIANAMGMKVLAYDILDIREKAEKINAKAVSLEELLKNSDVISLHVTVSKDAKPIIDYPQFELMKDNVIIVNTSRAVAVNGKALLDYIKKGKVYAYATDVFWNEPPKEEWELELLKHERVIVTTHIGAQTKEAQKRVAEMTTQNLLNAMKELGMI,soluble
13,MAKALEQPFDVANIPGPKMATLLEKGKPVANMIKKAKRPLLIVGPDMTDEMFERVKKFVEKDITVVATGSAITRFIDAGLGEKVNYAVLHELTQFLLDPDWKGFDGQGNYDLVLMLGSIYYHGSQMLAAIKNFAPHIRALAIDRYYHPNADMSFGNLWKKEEDYLKLLDEILAEL,soluble
14,MAKATYACVECGYRTPKPLGRCPSCGSWESFQEVAPAPASRRAKPSPLPLLALSQVDEAEERRFSSGLSEVDRVLGGGFVTGEVVLLGGEPGVGKSTLLLEMAKRMPQRVYYVAGEESPAQIKLRAQRLGVKDLLLVRETRLEPLLALLEEDPPEVLFVDSVQTLEAGGSPGSLVAVREATSALVRFAKERGVAVVLVGHVTKEGVVAGPKSVEHAVDATLYLETAGPYRVLRSAKNRFGPVGEIGVFRMEEAGLLEVENPSEAFLKERPLGVPGSAVALALAGERALALEVQALAAKTPFPAPRRVVQGLDGRRVDVVLAVLERRLGLPLANLDVYVNLAGGLKVQDPGLDLAVALAVYSAVVGRPLPVDLALVGEVGLAGEVRRVAVLERRLREGERAGFGRFLHPGNLKRLQEAVEAYLA,soluble
15,MAKEKEKLFSEFPPVSREAWIDKITADLKGVPFEKKLVWRTNEGFNVNPFYRREDIEDLKTTTSLPDEYPYVRSTRMHNEWLVRQDIVVGDNVAEANEKALDLLNKGVDSLGFYLKKVHINVDTLAALLKDIELTAVELNFNCCITRAADLLSAFSAYVKKVGADPNKCHGSVSYDPFKKQLVRGVSNPDWVKMTLPVMDAARELPAFRVLNVNAVNLSDAGAFITQELGYALAWGAELLDKLTDAGYKPEEIASRIKFNFGIGSNYFMEIAKFRAARWLWAQIVGSYGDQYKNETAKIHQHATTSMWNKTVFDAHVNLLRTQTETMSAAIAGVDSITVLPFDVTYQQSDDFSERIARNQQLLLKEECHFDKVIDPSAGSYYIETLTNSIGEEAWKLFLSVEDAGGFTQAAETASIQKAVNASNIKRHQSVATRREIFLGTNQFPNFTEVAGDKITLAQGEHDCNCVKSIEPLNFSRGASEFEALRLATEKSGKTPVVFMLTIGNLAMRLARSQFSSNFFGCAGYKLIDNLGFKSVEEGVDAALAAKADIVVLCSSDDEYAEYAPAAFDYLAGRAEFVVAGAPACMADLEAKGIRNYVHVKSNVLETLRAFNDKFGIR,not soluble
16,MAKFTVGQDPVKGLTELKAYMEEQISKIKKATSEQEIDQLLVEVLNEYDDKMGSLSKIYKGGNEQVEQLKIDVRKLYEPLRDQFSYNHPQTLVGEFQTKLEEQHKRAEEEKRKLEKQREEQLKLEKQLEEEKQKLAKQSEVEEKPKLENQQEENITQALQKVDGIIQELTLKIDRVDQHQYKKAHDTANTLLQSLIAARDEYERDLRANEFSQELAGRKFKLACQDAVKIAKPVLEKDLGWGDYLKNLLKCLGNAVITVFTFGYQQGFFAYARPDSAKAVEKAEEDLGLRQAASSPK,not soluble
17,MAKGVAVLSSSEGVAGTILFTQEGDGPTTVTGNISGLKPGLHGFHVHALGDTTNGCMSTGPHFNPAGKEHGSPEDETRHAGDLGNITVGDDGTACFTIVDKQIPLTGPHSIIGRAVVVHADPDDLGKGGHELSKSTGNAGGRIACGIIGLQG,soluble
